Assays:
[1] = system: DC2.4 cells; assay: MHC class II antigen presentation by DC2.4 cells to OT-II CD4+ T cells (IL-2 production); format: cell-based, mouse; conditions: FIG. 9 control: DC2.4 cells cultured with OVA, no NH4Cl
Method: DC2.4 cells pretreated in the presence of NH4Cl were cultured with OVA, and then the stimulation of OT-I CD8^+ T cells in response to MHC class I antigen presentation (circles) and stimulation of OT-II CD4^+ T cells in response to MHC class II antigen presentation (triangles) was determined by measuring IL-2 production levels. IL-2 production level in the presence of NH4Cl was expressed as a ratio relative to the control (IL-2 production was 700 pg/mL relative to OT-I, and 20 pg mL relative to OT-II).

[2] = system: DC2.4 cells; assay: MHC class I cross-presentation by DC2.4 cells to OT-I CD8+ T cells (IL-2 ELISA); format: cell-based, mouse; conditions: for antigenicity for stimulation of CD8+ OT-I T cells: FIG. 8a, OVA compared with bOVA
From the text: Whether knock-down of cellular components involved in ERAD decreases the cross-presentation of exogenous OVA antigen was examined using a system for evaluating the level of antigen presentation, which uses naive CD8^+ T cells from OT-I mice and DC2.4 cells. The DC2.4 cells used as a model of dendritic cells are of the H-2Kb mouse MHC class I haplotype. OT-I (H-2Kb) mice are transgenic mice expressing a T cell receptor (TCRα and β) that recognizes an antigenic peptide (SIINFEKL) (SEQ ID NO: 15) derived from OVA presented on the H-2Kb molecules. The CD8^+ cells of OT-I mice are activated when they recognize OVA peptides presented by BMDCs derived from H-2Kb mice or by DC2.4 cells. When OVA or bOVA is incubated with and affixed onto DC2.4 cells and the cells are further incubated with naive CD8^+ T cells of OT-I mice, the amount of IL-2 produced by OT-I CD8^+ T cells serves as an index of T-cell stimulation as a result of OVA antigen presented by DC2.4 cells.
Parental or knocked-down DC2.4 cells were pre-incubated in a culture medium supplemented with 50 μg mL^−1 polymyxin B for 30 minutes in the presence or absence of lactacystin or MG-132, and incubated with OVA (250 μg mL^−1) or SIINFEKL peptides (10 ng mL^−1) for six hours. The cells were washed, fixed with 1% paraformaldehyde, and aliquoted into microtiter plates (5×10^4 per well). 5×10^4 CD8^+ T cells purified from splenocytes of OT-1 mice using magnetic beads were added to each well and after a 24-hour incubation, the IL-2 secretion was measured by ELISA (BD Biosciences) in triplicate.
DC2.4 cells were incubated with OVA (0, 50, or 250 μg/mL) in RPMI1640/10c% FCS for six hours at 37° C., in the presence or absence of pig-derived HSP90 (10 μg/mL). After washing away the antigen and HSP, OT-I CD8^+ T cells were added, cells were cultured overnight at 37° C., and the amount of IL-2 comprised in the supernatant was measured by the ELISA method.
The timing of the addition of HSP90 (10 μg/mL) and OVA (250 μg/mL) to DC2.4 cells was varied, and the effect on class I antigen presentation was observed. (i) HSP90 was added first, DC2.4 cells were washed, and then OVA was added. (ii) HSP90 and OVA were added simultaneously to DC2.4 cells. (iii) OVA was added first, and after washing DC2.4 cells, HSP90 was added. The results obtained under these three conditions were compared. […]
Under condition (i), HSP90 was added to DC2.4 cells, the cells were cultured for 30 minutes and then washed to remove HSP90. […] DC2.4 cells activated with OVA by the above procedure were plated in a 96-well plate, OT-I mouse-derived CD8^+ T cells were added to this, and after culturing overnight, the amount of IL-2 released into the supernatant was measured by ELISA. […]

[3] = system: DC2.4 cells; assay: Polyubiquitination of antigenic protein taken up by DC2.4 cells (SDS-PAGE, Western blot with anti-polyubiquitin antibody); format: cell-based, mouse
Method: There are reports that when the KDEL sequence (Lys-Asp-Glu-Leu) (SEQ ID NO: 3), an endoplasmic reticulum localization sequence, is added to the carboxyl terminus of a protein localized in the ER lumen, the protein is repeatedly transported between the ER and Golgi apparatus, and ERAD of that protein is promoted. Therefore, DC2.4 cells were made to take up OVA with KDEL (SEQ ID NO: 3) added to its C-terminus, and OVA that was polyubiquitinated after uptake was observed by SDS-PAGE and Western blotting. OVA to which a KDEL sequence (SEQ ID NO: 3) was added was constructed and expressed as follows: using a plasmid comprising a DNA sequence encoding OVA as a template, PCR was performed using oligo-1 (SEQ ID NO: 10) and oligo-2 (SEQ ID NO: 11) as primers. The amplified PCR product of approximately 1100 bp was introduced into a pCR-Blunt vector (Invitrogen) to obtain vector-1. Oligo-3 (SEQ ID NO: 12) and oligo-4 (SEQ ID NO: 13) were annealed, and the obtained gene fragment of approximately 100 bp was introduced into the pCR-Blunt vector to obtain vector-2. Vector-2 was digested with SpeI, the obtained gene fragment of approximately 130 bp was introduced into vector-1 that had been digested with NheI to obtain vector-3. An approximately 1250-bp gene fragment (OVA-KDEL) obtained when vector-3 was digested with BamHI/SpeI was introduced into a vector for gene expression, and then expressed. […]

[4] = system: DC2.4 cells; assay: Uptake of antigenic protein into DC2.4 cells; format: cell-based, mouse; conditions: CHIP-knocked-down DC2.4 cells
Method: Next, DC2.4 cells were incubated for a set amount of time with OVA in the presence or absence of lactacystin (LC), and OVA taken up into the cells was measured. OVA taken up into cells in the presence or absence of Hsp90 was measured similarly.

[5] = system: DC2.4 cells
Method: Intracellular localization of foreign antigens was examined by cell fractionation methods. Chicken ovalbumin (OVA) was used as an antigen model, and DC2.4 (haplotype H-2Kb), a cultured cell line of mouse dendritic cells, was used as a model for dendritic cells. […] BMDCs with a haplotype of H-2Kb, the same as that of DC2.4, were used as the control. BMDCs were induced from the bone marrow cells of C57BL/6 mice (SLC) in RPMI-1640 supplemented with 5% FCS using 5 ng/mL GM-CSF (MEL), and those cells purified by magnetic beads after five days of culturing were used.
DC2.4 cells made to take up bOVA antigens were suspended in 10 mM Tris-HCl (pH7.4) containing 250 mM sucrose, this was homogenized using glass beads, centrifuged for 30 minutes at 250,000×g, and then fractionated. The supernatant was used as the soluble fraction; the precipitates were suspended in the same buffer as described above and used as the microsomal fraction. A fixed amount was incubated in the presence or absence of 1% TritonX-100, and together with or without 100 μg mL^−1 trypsin. Before collecting bOVA, soybean trypsin inhibitor (Sigma) was added at 500 μg mL^−1.

Molecule | IL-2 production, OT-II CD4+ T cells [1] | antigenicity for stimulation of CD8+ OT-I T cells [2] | IL-2 production, OT-I CD8+ T cells ([2]; FIG. 9 control: DC2.4 cells cultured with OVA, no NH4Cl) | polyubiquitination of bOVA ([3]; CHIP-knocked-down DC2.4 cells) | uptake of bOVA relative to parental DC2.4 cells [4] | share of bOVA taken up by cells recovered as trypsin-resistant bOVA from the microsomal fraction [5] | polyubiquitination of the substrate compared to OVA ([3]; DC2.4 cells made to take up OVA with KDEL added to its C-terminus) | antigen presentation level compared to OVA (OT-I CD8+ T cells) ([2]; DC2.4 cells, data not shown)
OVA: Chicken ovalbumin used as an antigen model (protein) GSIGAASMEFCFDVFKELKVHHANENIFYCPIAIMSALAMVYLGAKDSTRTQINKVVRFDKLPGFGDSIEAQCGTSVNVHSSLRDILNQITKPNDVYSFSLASRLYAEERYPILPEYLQCVKELYRGGLEPINFQTAADQARELINSWVESQTNGIIRNVLQPSSVDSQTAMVLVNAIVFKGLWEKAFKDEDTQAMPFRVTEQESKPVQMMYQIGLFRVASMASEKMKILELPFASGTMSMLVLLPDEVSGLEQLESIINFEKLTEWTSSNVMEERKIKVYLPRMKMEEKYNLTSVLMAMGITDVFSSSANLSGISSAESLKISQAVHAAHAEINEAGREVVGSAEAGVDAASVSEEFRADHPFLFCIKHIATNAVLFFGRCVSP | 20 pg·mL | equally antigenic | 700 pg/mL |  |  |  |  | 
bOVA: OVA antigen recovered with streptavidin beads (biotin-labeled samples) (protein) GSIGAASMEFCFDVFKELKVHHANENIFYCPIAIMSALAMVYLGAKDSTRTQINKVVRFDKLPGFGDSIEAQCGTSVNVHSSLRDILNQITKPNDVYSFSLASRLYAEERYPILPEYLQCVKELYRGGLEPINFQTAADQARELINSWVESQTNGIIRNVLQPSSVDSQTAMVLVNAIVFKGLWEKAFKDEDTQAMPFRVTEQESKPVQMMYQIGLFRVASMASEKMKILELPFASGTMSMLVLLPDEVSGLEQLESIINFEKLTEWTSSNVMEERKIKVYLPRMKMEEKYNLTSVLMAMGITDVFSSSANLSGISSAESLKISQAVHAAHAEINEAGREVVGSAEAGVDAASVSEEFRADHPFLFCIKHIATNAVLFFGRCVSP |  | equally antigenic |  | 34% | about 70% | ≥ 70% |  | 
OVA-KDEL: OVA with the endoplasmic reticulum localization sequence KDEL added to its C-terminus, SEQ ID NO: 14 (protein) MGSIGAASMEFCFDVFKELKVHHANENIFYCPIAIMSALAMVYLGAKDSTRTQINKVVRFDKLPGFGDSIEAQCGTSVNVHSSLRDILNQITKPNDVYSFSLASRLYAEERYPILPEYLQCVKELYRGGLEPINFQTAADQARELINSWVESQTNGIIRNVLQPSSVDSQTAMVLVNAIVFKGLWEKAFKDEDTQAMPFRVTEQESKPVQMMYQIGLFRVASMASEKMKILELPFASGTMSMLVLLPDEVSGLEQLESIINFEKLTEWTSSNVMEERKIKVYLPRMKMEEKYNLTSVLMAMGITDVFSSSANLSGISSAESLKISQAVHAAHAEINEAGREVVGSAEAGVDAASVSEEFRADHPFLFCIKHIATNAVLFFGRCVSPASAEDYEYPSRSNGTKNNTSQASKDEL |  |  |  |  |  |  | significantly promoted polyubiquitination | clearly found to be stronger

Reference: patent publication US20080194020A1, “Methods For Producing Dendritic Cells That Have Acquired Ctl-Inducing Ability” (Medical and Biological Laboratories Co., Ltd., priority 2004, published 2008)
